Like-named read-outs stand apart in the source and are kept apart here.
How the values were obtained:
von Willebrand factor [1] = target: von Willebrand factor (UniProt P04275)
von Willebrand factor [2] = target: von Willebrand factor (UniProt P04275); assay: cell-based or functional assay
von Willebrand factor [3] = target: von Willebrand factor (UniProt P04275); assay: ratio of IC50 values from the competitive radiolabelled botrocetin binding assay
von Willebrand factor [4] = target: von Willebrand factor (UniProt P04275); assay: competitive inhibition of 125I-two-chain botrocetin binding to vWF in solution by unlabeled two-chain botrocetin; vWF captured on 2-2-9 IgG coated wells

Row | Substance | IC50 (von Willebrand factor [1]) [µg/mL] | Half maximal binding capacity (BM50) (von Willebrand factor [2]) [µg/mL] | concentration giving maximal vWF binding to glycoprotein Ib (von Willebrand factor [2]) [µg/mL] | minimum concentration necessary to induce vWF binding to glycoprotein Ib (von Willebrand factor [2]) [µg/mL] | fold greater activity (BM50) than one-chain botrocetin (von Willebrand factor [2]) [fold] | fold higher affinity than one-chain botrocetin (von Willebrand factor [3]) [fold] | IC50 (von Willebrand factor [4]) [µg/mL]
1 | one-chain botrocetin | 55 | 5.5 | 17 | 1 | – | – | –
2 | two-chain botrocetin | – | 0.16 | – | – | 34 | 32 | 1.7
